Results taken from patent US20220136027.

Molecular target: T1, pentapeptide Gln-Pro-Gln-Gln-Pro
T1 chain: QPQQP

B1: FvePro4 (protein)
chain: ASRLSSRRWASSENMTKLDTTSRLNRLRGLMKERNVQIYIVPSEDSHSSEYIADCDARRAYISGFTGSAGCAVVTLESAALATDGRYFNQATSQLDSNWTLLKQGLQDVPTWQDWSAEQSSGGKNVGVDPTLISGSTAKNLAEKIRKNGGAELLPVDGNLVDLVWGDERPSRPSEQVIIQPDELAGESVLNKLTKVRQELEKKHSPGFLVSMLDEIAWLFNLRGNDIPYNPVFFAYATVTPDAAKLYIDEAKLDDKCRSHLTSNKVDIKPYETIFDDAQALHAAHAAKSKSGDKVPTGNFLISNKGSWALKRALGGDSSVDEIRSLIGDAKAIKTEAELKGMRDCHVRDGAALIQYFAWLEDQLVNKKATLDEVQAADKLEELRKVKKDFVGLSFPTISSTGANAAIIHYGPERGNCATIDPEAIYLCDSGAQYRDGTTDTTRTLHFGKPTEAEREAYTLVLKGHISLDQAIFPKGTTGFALDSLARQHLWKNGLDYRHGTGHGVGSFLNVHEGPIGIGTRVQYAEVALAPGNVLSNEPGYYEDGKYGIRIENMVLVKEVKTKHSFGDKPFLGFEYVTLVPYCRNLIDTTLLTSEEKEWLNTYNAKVLEKTQEYFEGDDVTLAWLKRETQHVE
  pentapeptide hydrolysis (ninhydrin reaction, A570): all purified proteases are capable of hydrolyzing pentapeptide Gln-Pro-Gln-Gln-Pro
